# Laboratory results published in the supplement of paper PMC7877785.
# ± gives the uncertainty stated by the source.
# Assay: self-splicing fitness, log relative to wild type (ln ratio); higher = more splicing; Tetrahymena group I intron in knt gene, E. coli kanamycin selection, DiMSum; sequences stand for … in CUCUCU…GGAGGGAAAAGUUAUCAGGCAUGCACCUGGUAGCUAGUCUUUAAACCAAUAGAUUGCAUCGGUUUAAAAGGCAAGACCGUCAAAUUGCGGGAAAGGGGUCAACAGCCGUUCAGUACCAAGUCUCAGGGGAAACUUUGAGAUGGCCUUGCAAAGGGUAUGGUAAUAAGCUGACGGACAUGGUCCUAACCACGCAGCCAAGUCCUAAGUCAACAGAUCUUCUGUUGAUAUGGAUGCAGUUCACAGACUAAAUGUCGGUCGGGGAAGAUGUAUUCUUCUCAUAAGAUAUAGUCGGACCUCUCCUUAAUGGGAGCUAGCGGAUGAAGUGAUGCAACACUGGAGCCGCUGGGAACUAAUUUGUAUGCGAAAGUAUAUUGAUUAGUUUUGGAGUACUCGUGGUCG
# Method in brief: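 Fitness was computed with DiMSum as the error-weighted combination of replicate fold changes, kanamycin versus none, each normalised to wild type. The library randomised all eight intron nucleotides of the P1ex region, with the intron placed in the knt kanamycin-resistance gene on pET-22b(+) in E. coli BL21(DE3). Six replicate transformations were grown overnight at 37°C or 30°C on LB agar with or without 25 μg/mL kanamycin, plus 100 μg/mL carbenicillin, 50 μM IPTG and 0.2% rhamnose. Pooled colonies were amplicon-sequenced on an Illumina HiSeq 2500.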
Sequence,self-splicing fitness (ln) (30 °C),self-splicing fitness (ln) (37 °C)
GCGAAGCAAUAUUACGCUCA,-1.48 ± 0.28,-2.25 ± 0.33
GCGAAGCAAUAUUACGGAUC,-0.303 ± 0.071,-0.659 ± 0.094
GCGAAGCAAUAUUACGGAUG,-1.48 ± 0.078,-1.32 ± 0.11
GCGAAGCAAUAUUACGGUCU,-1.71 ± 0.085,-0.493 ± 0.089
GCGAAGCAAUAUUACGUAGC,-3.43 ± 0.23,-2.22 ± 0.23
GCGAAGCAAUAUUACGUCGU,-3.79 ± 0.27,-2.6 ± 0.28
GCGAAGCAAUAUUACGUUUA,-2.57 ± 0.14,-1.32 ± 0.11
GCGCAGCAAUAUUACGAGAG,-3.03 ± 0.19,-1.35 ± 0.1
GCGCAGCAAUAUUACGAUCC,-0.589 ± 0.15,0.707 ± 0.24
GCGCAGCAAUAUUACGAUCG,-1.61 ± 0.11,0.00803 ± 0.12
GCGCAGCAAUAUUACGCCUU,-2.92 ± 0.23,0.19 ± 0.14
GCGCAGCAAUAUUACGCGGA,-0.906 ± 0.096,-0.269 ± 0.084
GCGCAGCAAUAUUACGGAAC,-1.37 ± 0.081,-0.714 ± 0.098
GCGCAGCAAUAUUACGGAGG,-1.63 ± 0.12,-0.473 ± 0.11
GCGCAGCAAUAUUACGGCCU,-0.201 ± 0.061,0.128 ± 0.072
GCGCAGCAAUAUUACGGGCA,-2.9 ± 0.14,-1.24 ± 0.11
GCGCAGCAAUAUUACGGGGC,-3.33 ± 0.18,-2.75 ± 0.38
GCGCAGCAAUAUUACGGUGC,-4.08 ± 0.25,-2.13 ± 0.32
GCGCAGCAAUAUUACGUAAC,-1.3 ± 0.088,-0.468 ± 0.12
GCGCAGCAAUAUUACGUCCG,-2.27 ± 0.11,-0.478 ± 0.14
GCGCAGCAAUAUUACGUCGG,-1.4 ± 0.097,-0.816 ± 0.13
GCGCAGCAAUAUUACGUGUC,-2.71 ± 0.19,-2.83 ± 0.24
GCGCAGCAAUAUUACGUUCG,-1.7 ± 0.068,-1.47 ± 0.096
GCGCAGCAAUAUUACGUUGU,-3.03 ± 0.13,-1.24 ± 0.12
GCGGAGCAAUAUUACGAAUC,-2.17 ± 0.44,–
GCGGAGCAAUAUUACGAGGG,-4.49 ± 0.36,-2.93 ± 0.34

Sequence,self-splicing fitness (ln) (30 °C),self-splicing fitness (ln) (37 °C)
GCGGAGCAAUAUUACGAGUC,–,-1.09 ± 0.45
GCGGAGCAAUAUUACGCACU,-2.62 ± 0.14,-2.79 ± 0.18
GCGGAGCAAUAUUACGCCUA,-2.53 ± 0.46,–
GCGGAGCAAUAUUACGGCUG,-2.93 ± 0.34,–
GCGGAGCAAUAUUACGGGCG,-1.83 ± 0.13,-1.21 ± 0.17
GCGGAGCAAUAUUACGUAGU,-2.12 ± 0.23,0.836 ± 0.34
GCGGAGCAAUAUUACGUGAG,-2.51 ± 0.12,-2.01 ± 0.15
GCGUAGCAAUAUUACGAAAC,-0.751 ± 0.25,-0.283 ± 0.4
GCGUAGCAAUAUUACGACCA,-1.52 ± 0.17,-0.255 ± 0.16
GCGUAGCAAUAUUACGACCU,-0.0292 ± 0.22,-0.575 ± 0.34
GCGUAGCAAUAUUACGACGU,-3.1 ± 0.16,-1.45 ± 0.28
GCGUAGCAAUAUUACGAGAA,-1.15 ± 0.29,-1.9 ± 0.2
GCGUAGCAAUAUUACGCAAC,-3.87 ± 0.18,-2.33 ± 0.17
GCGUAGCAAUAUUACGCAGG,-3.66 ± 0.47,-3.54 ± 0.33
GCGUAGCAAUAUUACGCAUG,–,-2.21 ± 0.23
GCGUAGCAAUAUUACGCGAU,-2.83 ± 0.26,-2.31 ± 0.26
GCGUAGCAAUAUUACGCUGG,-2 ± 0.18,-2.12 ± 0.32
GCGUAGCAAUAUUACGGACC,-2.2 ± 0.24,-2.35 ± 0.35
GCGUAGCAAUAUUACGGAGC,-4.23 ± 0.28,-3.03 ± 0.35
GCGUAGCAAUAUUACGGCAC,-0.32 ± 0.17,-0.367 ± 0.22
GCGUAGCAAUAUUACGGCGU,-4.1 ± 0.37,-2.07 ± 0.28
GCGUAGCAAUAUUACGGGAG,–,-2.28 ± 0.35
GCGUAGCAAUAUUACGGUCU,-0.587 ± 0.091,-0.159 ± 0.1
GCGUAGCAAUAUUACGUCAA,–,-2.38 ± 0.32
GCGUAGCAAUAUUACGUGCC,-3.08 ± 0.25,-2.83 ± 0.44
GCUAAGCAAUAUUACGAAUC,0.136 ± 0.29,-0.437 ± 0.35

Sequence,self-splicing fitness (ln) (30 °C),self-splicing fitness (ln) (37 °C)
GCUAAGCAAUAUUACGACAU,-0.734 ± 0.013,-0.156 ± 0.033
GCUAAGCAAUAUUACGACCC,-0.411 ± 0.11,0.239 ± 0.14
GCUAAGCAAUAUUACGACCU,-0.833 ± 0.1,0.599 ± 0.12
GCUAAGCAAUAUUACGACUG,-0.97 ± 0.1,-0.946 ± 0.14
GCUAAGCAAUAUUACGAGCC,-3.9 ± 0.2,-2.33 ± 0.33
GCUAAGCAAUAUUACGAGUC,-3.37 ± 0.21,-1.96 ± 0.22
GCUAAGCAAUAUUACGAUAG,-1.25 ± 0.13,-1.63 ± 0.17
GCUAAGCAAUAUUACGAUGA,-0.837 ± 0.09,-0.253 ± 0.1
GCUAAGCAAUAUUACGCACA,-0.938 ± 0.098,-0.709 ± 0.11
GCUAAGCAAUAUUACGCGGG,-3.54 ± 0.2,-0.902 ± 0.13
GCUAAGCAAUAUUACGCUAG,-2.94 ± 0.35,-3.64 ± 0.4
GCUAAGCAAUAUUACGCUGG,-4.23 ± 0.24,-2.76 ± 0.26
GCUAAGCAAUAUUACGGCAA,-2.17 ± 0.21,-0.981 ± 0.16
GCUAAGCAAUAUUACGGGUC,-2.55 ± 0.17,-1.89 ± 0.15
GCUAAGCAAUAUUACGGGUU,-2.18 ± 0.09,-1.28 ± 0.089
GCUAAGCAAUAUUACGGUAU,-0.915 ± 0.083,-0.555 ± 0.1
GCUAAGCAAUAUUACGGUGA,-0.864 ± 0.073,-0.0497 ± 0.077
GCUAAGCAAUAUUACGUAUC,-0.952 ± 0.082,-0.277 ± 0.1
GCUAAGCAAUAUUACGUGGA,-2 ± 0.093,-1.7 ± 0.092
GCUAAGCAAUAUUACGUGGU,-3.27 ± 0.19,-2.5 ± 0.18
GCUAAGCAAUAUUACGUGUG,-1.22 ± 0.079,-0.636 ± 0.098
GCUAAGCAAUAUUACGUUGU,-2.7 ± 0.11,-2.43 ± 0.13
GCUCAGCAAUAUUACGAACC,-1.34 ± 0.22,0.355 ± 0.23
GCUCAGCAAUAUUACGACAG,-3.53 ± 0.21,-2.28 ± 0.22
GCUCAGCAAUAUUACGACUC,-0.0981 ± 0.14,0.646 ± 0.14
